# Patent US20240016952A1 (published 2024)
# T1: cynomolgus monkey transferrin receptor 1 (cTfR1) (cynomolgus monkey (Macaca fascicularis), UniProt Q5RDH6 89-760 (Pongo abelii entry), limits assumed)
# T1 construct: Recombinant cynomolgus TfR1; also called cyTfR1; cyno TfR1
# T1 chain: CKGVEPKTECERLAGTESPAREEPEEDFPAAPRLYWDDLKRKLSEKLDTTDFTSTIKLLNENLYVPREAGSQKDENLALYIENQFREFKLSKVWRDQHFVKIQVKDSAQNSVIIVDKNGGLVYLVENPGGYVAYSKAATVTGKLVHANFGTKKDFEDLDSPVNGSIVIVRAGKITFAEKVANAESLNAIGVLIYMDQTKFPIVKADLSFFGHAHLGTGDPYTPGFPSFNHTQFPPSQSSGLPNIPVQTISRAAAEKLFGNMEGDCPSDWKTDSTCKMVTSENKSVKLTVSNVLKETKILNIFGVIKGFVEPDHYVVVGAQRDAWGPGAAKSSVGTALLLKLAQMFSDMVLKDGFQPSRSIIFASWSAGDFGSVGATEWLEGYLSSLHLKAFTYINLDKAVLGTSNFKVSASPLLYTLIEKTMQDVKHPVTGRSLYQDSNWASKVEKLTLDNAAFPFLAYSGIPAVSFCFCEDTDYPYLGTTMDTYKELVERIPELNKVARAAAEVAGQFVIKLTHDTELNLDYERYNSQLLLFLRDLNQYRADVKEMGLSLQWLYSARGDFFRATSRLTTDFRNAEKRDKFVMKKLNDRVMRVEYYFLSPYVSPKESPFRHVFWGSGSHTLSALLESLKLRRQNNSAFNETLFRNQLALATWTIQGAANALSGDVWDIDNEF
# Tests used:
# [1] = target: T1, cynomolgus monkey transferrin receptor …; assay: ELISA, cyno TfR1, Fab after 9 days at 40 C
# [2] = target: T1, cynomolgus monkey transferrin receptor …; assay: ELISA, cyno TfR1, Fab, day 0 of thermal stability test
# [3] = target: T1, cynomolgus monkey transferrin receptor …; assay: ELISA on plate-coated cyno TfR1, unconjugated Fab
# [4] = target: T1, cynomolgus monkey transferrin receptor …; assay: ELISA on plate-coated cyno TfR1, Fab-ASO300 conjugate
# [5] = target: T2, human transferrin receptor 1 (hTfR1) (human, UniProt P02786 89-760); assay: ELISA on plate-coated human TfR1, Fab-ASO300 conjugate
# T2 construct: Recombinant human TfR1; also called huTfR1; Human TfR1
# T2 sequence (P02786 89-760 limits assumed): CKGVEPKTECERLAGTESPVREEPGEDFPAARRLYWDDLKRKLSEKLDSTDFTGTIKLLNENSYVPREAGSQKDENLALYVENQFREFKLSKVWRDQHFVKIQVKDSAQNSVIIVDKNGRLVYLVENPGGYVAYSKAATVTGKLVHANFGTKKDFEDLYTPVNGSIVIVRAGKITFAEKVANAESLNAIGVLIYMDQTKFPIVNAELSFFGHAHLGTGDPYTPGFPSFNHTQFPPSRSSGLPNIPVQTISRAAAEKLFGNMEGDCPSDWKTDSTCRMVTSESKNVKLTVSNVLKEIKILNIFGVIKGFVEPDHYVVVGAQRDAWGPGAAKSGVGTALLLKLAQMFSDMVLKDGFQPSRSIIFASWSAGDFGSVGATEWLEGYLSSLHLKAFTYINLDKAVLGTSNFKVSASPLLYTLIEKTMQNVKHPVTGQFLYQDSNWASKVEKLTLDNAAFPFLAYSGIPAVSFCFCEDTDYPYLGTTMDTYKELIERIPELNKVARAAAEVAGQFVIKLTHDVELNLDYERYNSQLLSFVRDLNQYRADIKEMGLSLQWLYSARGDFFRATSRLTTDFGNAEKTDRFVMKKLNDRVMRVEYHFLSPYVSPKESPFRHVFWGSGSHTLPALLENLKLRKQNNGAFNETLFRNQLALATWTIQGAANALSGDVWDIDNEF
# [6] = target: T1, cynomolgus monkey transferrin receptor …; assay: ELISA, cyno TfR1, Fab-ASO300 conjugate
Binder,Binding affinity cyno TfR1 d 9 [1] [nM],Binding affinity cyno TfR1 d 0 [2] [nM],Fab binding affinity ELISA [3] [nM],Conjugate binding affinity ELISA [4] [nM],Conjugate binding affinity ELISA [5] [nM],DMPK oligo conjugate binding to cyno TfR1 [6] [nM]
"humanized anti-TfR Fab 3M12 VH3/Vk2 (Fab, V domains shown) VH: QVQLQESGPGLVKPSQTLSLTCSVTGYSITSGYYWNWIRQPPGKGLEWMGYITFDGANNYNPSLKNRVSISRDTSKNQFSLKLSSVTAEDTATYYCTRSSYDYDVLDYWGQGTTVTVSS VL: DIQMTQSPSSLSASVGDRVTITCRASQDISNFLNWYQQKPGQPVKLLIYYTSRLHSGVPSRFSGSGSGTDFTLTISSLQPEDFATYFCQQGHTLPYTFGQGTKLEIKR",19.5,9.9,9.9,,,
"humanized anti-TfR Fab 3M12 VH3/Vk2 conjugated to DMPK-targeting oligonucleotide ASO300 (Fab, V domains shown, Fab conjugated to oligonucleotide ASO300; chain and residue not stated, Fab-oligonucleotide conjugate; The protein chains are those of the unconjugated Fab) VH: QVQLQESGPGLVKPSQTLSLTCSVTGYSITSGYYWNWIRQPPGKGLEWMGYITFDGANNYNPSLKNRVSISRDTSKNQFSLKLSSVTAEDTATYYCTRSSYDYDVLDYWGQGTTVTVSS VL: DIQMTQSPSSLSASVGDRVTITCRASQDISNFLNWYQQKPGQPVKLLIYYTSRLHSGVPSRFSGSGSGTDFTLTISSLQPEDFATYFCQQGHTLPYTFGQGTKLEIKR",,,,2.9,2.2,2.26
"humanized anti-TfR Fab 3M12 VH3/Vk3 (Fab, V domains shown) VH: QVQLQESGPGLVKPSQTLSLTCSVTGYSITSGYYWNWIRQPPGKGLEWMGYITFDGANNYNPSLKNRVSISRDTSKNQFSLKLSSVTAEDTATYYCTRSSYDYDVLDYWGQGTTVTVSS VL: DIQMTQSPSSLSASVGDRVTITCRASQDISNFLNWYQQKPGQPVKLLIYYTSRLHSGVPSRFSGSGSGTDFTLTISSLQPEDFATYYCQQGHTLPYTFGQGTKLEIKR",15.6,4.7,4.7,,,
"humanized anti-TfR Fab 3M12 VH4/Vk2 (Fab, V domains shown) VH: QVQLQESGPGLVKPSQTLSLTCTVTGYSITSGYYWNWIRQPPGKGLEWIGYITFDGANNYNPSLKNRVSISRDTSKNQFSLKLSSVTAEDTATYYCTRSSYDYDVLDYWGQGTTVTVSS VL: DIQMTQSPSSLSASVGDRVTITCRASQDISNFLNWYQQKPGQPVKLLIYYTSRLHSGVPSRFSGSGSGTDFTLTISSLQPEDFATYFCQQGHTLPYTFGQGTKLEIKR",5.01,1.4,1.4,,,
"humanized anti-TfR Fab 3M12 VH4/Vk3 conjugated to DMPK-targeting oligonucleotide ASO300 (Fab, V domains shown, Fab conjugated to oligonucleotide ASO300; chain and residue not stated, Fab-oligonucleotide conjugate; The protein chains are those of the unconjugated Fab) VH: QVQLQESGPGLVKPSQTLSLTCTVTGYSITSGYYWNWIRQPPGKGLEWIGYITFDGANNYNPSLKNRVSISRDTSKNQFSLKLSSVTAEDTATYYCTRSSYDYDVLDYWGQGTTVTVSS VL: DIQMTQSPSSLSASVGDRVTITCRASQDISNFLNWYQQKPGQPVKLLIYYTSRLHSGVPSRFSGSGSGTDFTLTISSLQPEDFATYYCQQGHTLPYTFGQGTKLEIKR",,,,2.1,1.7,1.85
"humanized anti-TfR Fab 3A4 VH3 (N54T)/Vk4 (Fab, V domains shown) VH: EVQLVQSGSELKKPGASVKVSCTASGFNIKDDYMYWVRQPPGKGLEWIGWIDPETGDTEYASKFQDRVTVTADTSTNTAYMELSSLRSEDTAVYYCTLWLRRGLDYWGQGTLVTVSS VL: DIVMTQSPLSLPVTPGEPASISCRSSKSLLHSNGYTYLFWFQQRPGQSPRLLIYRMSNLASGVPDRFSGSGSGTDFTLKISRVEAEDVGVYYCMQHLEYPFTFGGGTKVEIKR",128,156,156,,,
"humanized anti-TfR Fab 3A4 VH3 (N54T)/Vk4 conjugated to DMPK-targeting oligonucleotide ASO300 (Fab, V domains shown, Fab conjugated to oligonucleotide ASO300; chain and residue not stated, Fab-oligonucleotide conjugate; The protein chains are those of the unconjugated Fab) VH: EVQLVQSGSELKKPGASVKVSCTASGFNIKDDYMYWVRQPPGKGLEWIGWIDPETGDTEYASKFQDRVTVTADTSTNTAYMELSSLRSEDTAVYYCTLWLRRGLDYWGQGTLVTVSS VL: DIVMTQSPLSLPVTPGEPASISCRSSKSLLHSNGYTYLFWFQQRPGQSPRLLIYRMSNLASGVPDRFSGSGSGTDFTLKISRVEAEDVGVYYCMQHLEYPFTFGGGTKVEIKR",,,,4.7,2.8,5.12
"humanized anti-TfR Fab 3A4 VH3 (N54S)/Vk4 conjugated to DMPK-targeting oligonucleotide ASO300 (Fab, V domains shown, Fab conjugated to oligonucleotide ASO300; chain and residue not stated, Fab-oligonucleotide conjugate; The protein chains are those of the unconjugated Fab) VH: EVQLVQSGSELKKPGASVKVSCTASGFNIKDDYMYWVRQPPGKGLEWIGWIDPESGDTEYASKFQDRVTVTADTSTNTAYMELSSLRSEDTAVYYCTLWLRRGLDYWGQGTLVTVSS VL: DIVMTQSPLSLPVTPGEPASISCRSSKSLLHSNGYTYLFWFQQRPGQSPRLLIYRMSNLASGVPDRFSGSGSGTDFTLKISRVEAEDVGVYYCMQHLEYPFTFGGGTKVEIKR",,,,7.8,2.9,4.1
"humanized anti-TfR Fab 3A4 VH3/Vk4 conjugated to DMPK-targeting oligonucleotide ASO300 (Fab, V domains shown, Fab conjugated to oligonucleotide ASO300; chain and residue not stated, Fab-oligonucleotide conjugate; The protein chains are those of the unconjugated Fab) VH: EVQLVQSGSELKKPGASVKVSCTASGFNIKDDYMYWVRQPPGKGLEWIGWIDPENGDTEYASKFQDRVTVTADTSTNTAYMELSSLRSEDTAVYYCTLWLRRGLDYWGQGTLVTVSS VL: DIVMTQSPLSLPVTPGEPASISCRSSKSLLHSNGYTYLFWFQQRPGQSPRLLIYRMSNLASGVPDRFSGSGSGTDFTLKISRVEAEDVGVYYCMQHLEYPFTFGGGTKVEIKR",,,,7.6,2.8,7.59
"humanized anti-TfR Fab 5H12 VH5 (C33Y)/Vk4 (Fab, V domains shown, also called 5H12 (VH4-C33Y/Vk4)) VH: QVQLVQSGAEVKKPGASVKVSCKASGYSFTDYYINWVRQAPGQGLEWMGWIYPGSGNTRYSERFKGRVTITRDTSASTAYMELSSLRSEDTAVYYCAREDYYPYHGMDYWGQGTLVTVSS VL: DIVMTQSPDSLAVSLGERATINCRASESVDGYDNSFMHWYQQKPGQPPKLLIFRASNLESGVPDRFSGSGSGTDFTLTISSLQAEDVAVYYCQQSSEDPWTFGQGTKLEIKR",0.26,3.3,3.3,,,
"humanized anti-TfR Fab 5H12 VH5 (C33D)/Vk4 (Fab, V domains shown) VH: QVQLVQSGAEVKKPGASVKVSCKASGYSFTDYDINWVRQAPGQGLEWMGWIYPGSGNTRYSERFKGRVTITRDTSASTAYMELSSLRSEDTAVYYCAREDYYPYHGMDYWGQGTLVTVSS VL: DIVMTQSPDSLAVSLGERATINCRASESVDGYDNSFMHWYQQKPGQPPKLLIFRASNLESGVPDRFSGSGSGTDFTLTISSLQAEDVAVYYCQQSSEDPWTFGQGTKLEIKR",0.63,3.5,3.5,,,
"humanized anti-TfR Fab 5H12 VH5 (C33Y)/Vk3 conjugated to DMPK-targeting oligonucleotide ASO300 (Fab, V domains shown, Fab conjugated to oligonucleotide ASO300; chain and residue not stated, Fab-oligonucleotide conjugate; The protein chains are those of the unconjugated Fab) VH: QVQLVQSGAEVKKPGASVKVSCKASGYSFTDYYINWVRQAPGQGLEWMGWIYPGSGNTRYSERFKGRVTITRDTSASTAYMELSSLRSEDTAVYYCAREDYYPYHGMDYWGQGTLVTVSS VL: DIVLTQSPDSLAVSLGERATINCRASESVDGYDNSFMHWYQQKPGQPPKLLIFRASNLESGVPDRFSGSGSRTDFTLTISSLQAEDVAVYYCQQSSEDPWTFGQGTKLEIKR",,,,2.3,33.4,
"humanized anti-TfR Fab 5H12 VH5 (C33Y)/Vk3 (Fab, V domains shown) VH: QVQLVQSGAEVKKPGASVKVSCKASGYSFTDYYINWVRQAPGQGLEWMGWIYPGSGNTRYSERFKGRVTITRDTSASTAYMELSSLRSEDTAVYYCAREDYYPYHGMDYWGQGTLVTVSS VL: DIVLTQSPDSLAVSLGERATINCRASESVDGYDNSFMHWYQQKPGQPPKLLIFRASNLESGVPDRFSGSGSRTDFTLTISSLQAEDVAVYYCQQSSEDPWTFGQGTKLEIKR",0.69,2.1,2.1,,,
